# Results published in the supplement of paper PMC10126150.
# ± gives the standard deviation of the averaged measurements.
# System: ATP
# Assay: switch fluorescence ratio, 500 uM ATP over buffer (Cy3 cluster intensity, sum of 5 cycles each) (fold (ratio)); higher = stronger signal-on switching upon ATP binding; sequences stand for … in TCGTCGGCAGCGTCAGATGTGTATAAGAGACAGTTTTTTTTTTTTTTTTTTTTTTTTT…TC
# Conditions: aptamer strand: ATP DNA aptamer (quencher-CACCTGGGGGAGTATTGCGGAGGAAGG + anchor), 100 nM annealed; ATP concentration: 500 uM
# In short: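 Cy3-labelled switching-strand clusters on a modified Illumina MiSeq flow-cell were annealed to 100 nM quencher-labelled ATP aptamer and imaged first in selection buffer, then after 15 min with 500 uM ATP at 22 °C. NaOH stripping and re-annealing separated each of five buffer/ATP cycles, and clusters outside 100-1000 RFU were excluded. The fluorescence ratio sums target-cycle Cy3 intensity over buffer-cycle Cy3 intensity per cluster and averages it per switch-domain sequence.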
# 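Further: ATP exposure 15 min at 22 °C before imaging.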
row,Sequence,switch fluorescence ratio
1,TATGTAGACG,1.04 ± 0.064
2,TATGTAGGAG,0.994 ± 0.018
3,TATGTCATAC,1.14 ± 0.058
4,TATGTCTCTC,0.97458 ± 0.00069
5,TATGTGAGGC,0.993 ± 0.011
6,TATGTGGCAC,1.08 ± 0.061
7,TATGTGGGAT,0.9734 ± 0.0016
8,TATGTGTGTG,0.9889 ± 0.0089
9,TATGTGTTGC,1.03 ± 0.023
10,TATGTTATAT,0.991 ± 0.029
11,TATGTTGTGT,0.96 ± 0.037
12,TATGTTTAAT,0.994 ± 0.041
13,TATGTTTGCC,1.02 ± 0.047
14,TATGTTTT,1.02 ± 0.016
15,TATGTTTTCT,1.01 ± 0.039
16,TATTAACGTA,1.08 ± 0.022
17,TATTAAGGGA,0.995 ± 0.012
18,TATTAATTGG,0.9932 ± 0.0037
19,TATTACTGAG,1.07 ± 0.036
20,TATTACTTTG,1.01 ± 0.024
21,TATTAGAATA,0.9814 ± 0.006
22,TATTAGACTA,1.02 ± 0.022
23,TATTAGGGGC,1.04 ± 0.036
24,TATTAGTAAT,1.002 ± 0.0032
25,TATTAGTAGC,0.9995 ± 0.0013

row,Sequence,switch fluorescence ratio
1,TATTAGTTAA,0.992 ± 0.019
2,TATTATGCGA,1.04 ± 0.022
3,TATTATGTCA,1.01 ± 0.043
4,TATTATTTTC,1.03 ± 0.046
5,TATTCAGGGA,1.02 ± 0.02
6,TATTCAGTCG,0.9927 ± 0.0051
7,TATTCATCGT,0.9932 ± 0.0075
8,TATTCTAATT,1.004 ± 0.006
9,TATTCTCGAC,1.01 ± 0.013
10,TATTCTGCTA,1.02 ± 0.024
11,TATTCTTTTT,0.968 ± 0.04
12,TATTGAAATT,1.05 ± 0.022
13,TATTGACAA,1.02 ± 0.019
14,TATTGAGAAG,0.987 ± 0.025
15,TATTGAGAGT,0.991 ± 0.032
16,TATTGAGATA,1.01 ± 0.04
17,TATTGAGGAG,1.01 ± 0.011
18,TATTGATATT,1.06 ± 0.14
19,TATTGATTTA,1.02 ± 0.042
20,TATTGCCGGG,0.985 ± 0.036
21,TATTGCGGGG,1.2 ± 0.42
22,TATTGGAGAT,1 ± 0.021
23,TATTGGCTAA,0.987 ± 0.034
24,TATTGGGGAG,1.13 ± 0.29
25,TATTGGGGAT,1.06 ± 0.043

row,Sequence,switch fluorescence ratio
1,TATTGGGGGT,1.01 ± 0.044
2,TATTGGGTCA,0.996 ± 0.03
3,TATTGGTTAA,0.974 ± 0.021
4,TATTGGTTCG,1.03 ± 0.027
5,TATTGTAACC,1.03 ± 0.016
6,TATTGTAATG,1.04 ± 0.0081
7,TATTGTGTGT,0.987 ± 0.022
8,TATTGTTGAC,1.037 ± 0.01
9,TATTTAACTT,1.014 ± 0.005
10,TATTTAAGTT,1.03 ± 0.013
11,TATTTACGGG,0.9931 ± 0.0065
12,TATTTAGTAT,0.99 ± 0.045
13,TATTTAGTCT,1 ± 0.026
14,TATTTATGTT,0.995 ± 0.031
15,TATTTCATAT,1 ± 0.013
16,TATTTCGGGA,0.994 ± 0.026
17,TATTTCGGTT,1.002 ± 0.0096
18,TATTTCTGTG,1.02 ± 0.034
19,TATTTGAGA,1.01 ± 0.019
20,TATTTGATGG,0.992 ± 0.021
21,TATTTGGGGG,1.01 ± 0.029
22,TATTTGGGTA,0.987 ± 0.026
23,TATTTTAGAA,0.996 ± 0.016
24,TATTTTAGGG,0.985 ± 0.029
25,TATTTTCATT,0.999 ± 0.015

row,Sequence,switch fluorescence ratio
1,TATTTTCGGA,0.97 ± 0.039
2,TATTTTGAGT,0.989 ± 0.012
3,TATTTTGGAG,0.985 ± 0.035
4,TATTTTGGCC,1.02 ± 0.04
5,TATTTTGTCT,1.1 ± 0.13
6,TATTTTGTGT,0.998 ± 0.036
7,TATTTTTCCG,1.03 ± 0.012
8,TATTTTTGTG,0.985 ± 0.011
9,TATTTTTTAT,1.022 ± 0.0017
10,TATTTTTTTA,0.997 ± 0.039
11,TCAAAACGGC,1.07 ± 0.15
12,TCAAAAGGGG,1.06 ± 0.092
13,TCAAACAGTG,1.02 ± 0.039
14,TCAAAGATAA,0.98902 ± 2.8e-05
15,TCAAAGCCCT,1.03 ± 0.03
16,TCAAATCGTT,0.992 ± 0.0074
17,TCAAATGGCG,0.923 ± 0.023
18,TCAAATTAGA,0.966 ± 0.026
19,TCAACAGGA,1.01 ± 0.033
20,TCAACCTACG,1.36 ± 0.17
21,TCAACGGGTA,1.01 ± 0.021
22,TCAACGTCAG,0.9872 ± 0.0048
23,TCAAGAGATG,1 ± 0.015
24,TCAAGATTAT,0.994 ± 0.027
25,TCAAGCCGAG,1.08 ± 0.062

row,Sequence,switch fluorescence ratio
1,TCAAGGAGGT,1.01 ± 0.13
2,TCAAGGCCTG,1.01 ± 0.042
3,TCAAGGGTCC,0.996 ± 0.07
4,TCAAGTAAAG,1.14 ± 0.23
5,TCAAGTGTTT,0.993 ± 0.015
6,TCAAGTTTTC,0.987 ± 0.034
7,TCAATCAGGT,1.032 ± 0.0019
8,TCAATCGACA,1 ± 0.041
9,TCAATCGTTG,1.05 ± 0.016
10,TCAATCTAAC,1.35 ± 0.55
11,TCAATGGGGC,0.979 ± 0.044
12,TCAATGGGTA,0.991 ± 0.021
13,TCAATGGTAA,0.97 ± 0.096
14,TCAATGGTTA,0.978 ± 0.014
15,TCAATGTGCG,1.013 ± 0.01
16,TCAATTCTGA,1.002 ± 0.0075
17,TCACAAATAA,0.993 ± 0.043
18,TCACAAATGA,1.013 ± 0.0077
19,TCACAAGTTG,1.01 ± 0.019
20,TCACAGTTTT,0.983 ± 0.02
21,TCACATGTGG,1.03 ± 0.044
22,TCACATTAAG,1.01 ± 0.037
23,TCACATTTGG,1.03 ± 0.045
24,TCACATTTTA,0.995 ± 0.04
25,TCACGCCTTT,1.05 ± 0.033

row,Sequence,switch fluorescence ratio
1,TCACGGGCAG,0.978 ± 0.012
2,TCACGGGGTT,1.01 ± 0.039
3,TCACGGTGTC,1.11 ± 0.026
4,TCACGTGTCA,0.9999 ± 0.0089
5,TCACGTTAAT,1.2 ± 0.058
6,TCACGTTGGG,0.9989 ± 0.0094
7,TCACTCATTG,0.9975 ± 0.0014
8,TCACTGAGCT,1.05 ± 0.034
9,TCACTGGGGA,0.995 ± 0.03
10,TCACTTAATA,0.994 ± 0.014
11,TCAGAATGGG,0.9833 ± 0.0047
12,TCAGACAGTT,0.987 ± 0.0042
13,TCAGACTTGC,1 ± 0.035
14,TCAGAGACCC,1.006 ± 0.009
15,TCAGATATTG,0.992 ± 0.04
16,TCAGATTGGC,1.04 ± 0.12
17,TCAGCCTAGG,1.02 ± 0.023
18,TCAGCGTGGG,1.04 ± 0.054
19,TCAGCTGCAA,4.21 ± 0.32
20,TCAGGAGGGC,0.999 ± 0.016
21,TCAGGAGTTT,1.04 ± 0.011
22,TCAGGATGTT,0.987 ± 0.026
23,TCAGGATTAG,1.02 ± 0.02
24,TCAGGATTGT,0.967 ± 0.031
25,TCAGGGACCG,1.03 ± 0.026

row,Sequence,switch fluorescence ratio
1,TCAGGGAGTT,0.969 ± 0.015
2,TCAGGGATT,1.01 ± 0.057
3,TCAGGGCATG,1.04 ± 0.043
4,TCAGGGCTGT,0.994 ± 0.029
5,TCAGGGGAAC,1.06 ± 0.07
6,TCAGGGGCCC,1.07 ± 0.084
7,TCAGGGGGAT,1.02 ± 0.028
8,TCAGGGGGGA,1 ± 0.04
9,TCAGGGGTTT,1.3 ± 0.53
10,TCAGGGTAGG,1.04 ± 0.033
11,TCAGGGTCAG,1.007 ± 0.0063
12,TCAGGGTGC,1.204 ± 0.0036
13,TCAGGGTGTC,1.33 ± 0.17
14,TCAGGGTGTG,1.019 ± 0.0067
15,TCAGGTGGAG,1.03 ± 0.041
16,TCAGGTGTGA,1.27 ± 0.025
17,TCAGGTGTGT,1.36 ± 0.11
18,TCAGGTTTTG,0.98 ± 0.013
19,TCAGTAACGT,1.02 ± 0.013
20,TCAGTAAGTT,0.995 ± 0.021
21,TCAGTACGAC,1.2 ± 0.021
22,TCAGTAGTGA,1.06 ± 0.051
23,TCAGTATAGG,1.01 ± 0.021
24,TCAGTATTTT,1.018 ± 0.0047
25,TCAGTCAAGG,0.9745 ± 0.0044

row,Sequence,switch fluorescence ratio
1,TCAGTCATCT,1 ± 0.013
2,TCAGTGAAAC,0.988 ± 0.021
3,TCAGTGTTTT,1 ± 0.04
4,TCAGTTTTTC,1.013 ± 0.0022
5,TCATAAAACC,1.09 ± 0.11
6,TCATAAGGGC,1.01 ± 0.12
7,TCATACGTCG,1.03 ± 0.036
8,TCATAGGGTG,1.03 ± 0.1
9,TCATATTCTA,0.9849 ± 0.0019
10,TCATATTGAT,0.984 ± 0.051
11,TCATATTGCG,0.983 ± 0.019
12,TCATCAGTCT,0.995 ± 0.039
13,TCATCCTAGC,1.19 ± 0.062
14,TCATCGGGGT,0.994 ± 0.023
15,TCATCTACAG,1.02 ± 0.013
16,TCATCTCTGG,0.992 ± 0.024
17,TCATCTTGTC,1.01 ± 0.04
18,TCATGAAAAG,0.997 ± 0.013
19,TCATGAACAT,1.001 ± 0.0082
20,TCATGAAGGA,0.964 ± 0.018
21,TCATGACCCA,1.03 ± 0.018
22,TCATGATGTA,0.9848 ± 0.0061
23,TCATGGAGGT,0.96 ± 0.03
24,TCATGGGAGA,0.984 ± 0.04
25,TCATGGGCCG,1.33 ± 0.43
